Here are results for one molecule from paper PMC5227068.

Test [1] addresses recombinant human CD36 (human), P16671. Description: BLI; Octet Qke; hisCD36 immobilised on Ni-NTA biosensors, CIDR domain in kinetics buffer (PBS, 0.02% Tween-20, 100 ug/ml BSA, 0.005% sodium azide); association 600 or 900 s, dissociation 300 to 600 s; double-reference subtracted data fitted to a 1:1 binding model.
Test [2] has the same target. Description: BLI; Octet Qke; hisCD36 immobilised on Ni-NTA biosensors, CIDR domains in solution; kinetics buffer (PBS, 0.02% Tween-20, 100 μg/ml bovine serum albumin, 0.005% sodium azide); association 600 or 900 s, dissociation 300 to 600 s; 1:1 fit. Background: BLI is a label-free optical method that tracks binding on a fibre tip over time.

recombinant human CD36 (human), P16671, sequence (P16671 whole entry, the tested form may be a part): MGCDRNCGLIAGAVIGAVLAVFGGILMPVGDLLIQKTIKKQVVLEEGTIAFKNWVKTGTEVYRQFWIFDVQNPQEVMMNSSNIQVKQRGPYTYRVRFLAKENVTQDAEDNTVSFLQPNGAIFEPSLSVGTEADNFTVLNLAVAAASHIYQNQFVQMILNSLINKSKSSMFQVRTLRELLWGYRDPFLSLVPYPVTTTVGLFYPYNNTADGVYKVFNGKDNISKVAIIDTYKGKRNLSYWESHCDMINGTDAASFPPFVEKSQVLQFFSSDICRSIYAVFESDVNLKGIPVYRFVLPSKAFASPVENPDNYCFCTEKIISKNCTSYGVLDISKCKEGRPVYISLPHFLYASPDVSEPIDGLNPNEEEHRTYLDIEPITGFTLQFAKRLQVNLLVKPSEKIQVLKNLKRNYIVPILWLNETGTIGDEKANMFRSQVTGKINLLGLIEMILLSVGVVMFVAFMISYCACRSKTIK

B1: P. reichenowi var85 CIDRα5 (domain or fragment)
chain: PECGVVRNGGTFQKNDEKEGDCSGKNEEYKPPEGVTEHDINFLYSGEGHEDMTKKLSGFCKKPEDKKGTRNEQWKCYYEKAENNMCKMTNKGANDNEHAKMMSFNDFFNFWVSHLLTDTINWRKELNRCIKASKSETCEKKCNKNCKCFQKWIEKKKVEWEEVKDQYDEQKDMDIFNPYWILEYDLEEQLLPIMEKNNSDLELIGKMKEIIGKNYKNKELKRTDVNAIDILLKHELKDATTCVENDPQENC
modifications: not checked
B1: in test [1], the koff stood at 3.42e-05 s⁻¹ and the kon was 19800 M⁻¹ s⁻¹. For the same molecule, in test [2], the Kd was found to be 1.7 nM.

A word on the koff: it is a measure of how fast the partners let go of each other. What is called kon is the rate constant with which the complex forms. Broadly, the Kd is a measure of binding affinity in units of concentration.
